Changes are numbered by the printed parent chain. Names may count otherwise.
T1: cynomolgus monkey FcγRIIa1 extracellular domain, C-terminal His-tag (cynomolgus monkey)
T1 construct: also called cyno FcγRIIa1; cynoFcgRIIa1; not shown: His-tag added to C-terminus
T1 chain: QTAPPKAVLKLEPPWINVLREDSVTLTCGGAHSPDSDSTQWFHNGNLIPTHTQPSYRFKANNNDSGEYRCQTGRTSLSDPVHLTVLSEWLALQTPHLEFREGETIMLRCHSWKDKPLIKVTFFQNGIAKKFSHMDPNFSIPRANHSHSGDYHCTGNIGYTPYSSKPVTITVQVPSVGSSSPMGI

T2: human FcγRIIaH extracellular domain, C-terminal His-tag (human, UniProt P12318 34-217)
T2 construct: also called human FcγRIIa (type H); FcgRIIaH; not shown: His-tag added to C-terminus
T2 sequence: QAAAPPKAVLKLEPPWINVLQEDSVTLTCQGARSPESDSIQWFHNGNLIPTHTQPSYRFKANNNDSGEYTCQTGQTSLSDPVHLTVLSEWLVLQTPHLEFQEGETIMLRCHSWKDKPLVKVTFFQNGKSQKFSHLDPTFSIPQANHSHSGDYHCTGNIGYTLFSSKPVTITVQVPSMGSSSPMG

T3: human FcγRIIaR extracellular domain, C-terminal His-tag (human, UniProt P12318 34-217)
T3 construct: also called human FcγRIIa (type R); FcgRIIaR; not shown: His-tag added to C-terminus
T3 chain: T2 sequence with H134R

T4: human FcγRIIb extracellular domain, C-terminal His-tag (human, UniProt P31994 43-217)
T4 construct: also called humanFcgRIIb; not shown: His-tag added to C-terminus
T4 sequence: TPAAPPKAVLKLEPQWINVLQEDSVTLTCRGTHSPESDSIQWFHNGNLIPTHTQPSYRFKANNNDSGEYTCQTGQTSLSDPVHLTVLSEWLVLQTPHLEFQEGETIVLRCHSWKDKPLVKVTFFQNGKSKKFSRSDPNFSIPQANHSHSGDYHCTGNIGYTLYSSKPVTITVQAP

T5: cynomolgus monkey FcγRIIa1 extracellular domain with C-terminal His-tag (cynomolgus monkey)
T5 construct: Expressed in FreeStyle 293 cells and purified; also called cyno FcγRIIa1; cynoFcgRIIa1; not shown: C-terminal His-tag
T5 chain: T1 chain

T6: cynomolgus monkey FcγRIIIaS extracellular domain with C-terminal His-tag (cynomolgus monkey, UniProt Q8SPW2 21-206 at identity 1.00))
T6 construct: Expressed in FreeStyle 293 cells and purified; also called cyno FcγRIIIaS; cynoFcγRIIIaS; not shown: C-terminal His-tag
T6 chain: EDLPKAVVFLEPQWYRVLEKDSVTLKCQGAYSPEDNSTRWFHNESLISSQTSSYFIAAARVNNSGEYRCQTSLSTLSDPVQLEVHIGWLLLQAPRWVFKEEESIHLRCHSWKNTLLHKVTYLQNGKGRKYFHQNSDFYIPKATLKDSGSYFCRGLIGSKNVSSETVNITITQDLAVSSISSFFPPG

T7: human FcγRIIaR extracellular domain with C-terminal His-tag (human, UniProt P12318 34-217)
T7 construct: Expressed in FreeStyle 293 cells and purified; also called human FcγRIIa (type R); FcgRIIaR; not shown: C-terminal His-tag
T7 chain: T2 sequence with H134R

B1: MS_M103205H795-SG1/M103202L889-SK1 (antibody, human IgG1, kappa)
heavy: not shown
light: DIVMTQSPATLSLSPGERATLSCTSSQSVYHANWLSWFQQKPGQPPKLLIYWASTLAYGVPSRFSGSGSGTDFTLTISSLQPEDAATYYCAGGYGGGRYAFGQGTKVEIKRTVAAPSVFIFPPSDEQLKSGTASVVCLLNNFYPREAKVQWKVDNALQSGNSQESVTEQDSKDSTYSLSSTLTLSKADYEKHKVYACEVTHQGLSSPVTKSFNRGEC
notes: Parent antibody with SG1 human heavy chain constant region; also called MS1032LO06-SG1
B2: M103205H795-MY335 / M103202L889-SK1 (antibody, human IgG1, kappa)
heavy: QVTLKESGPVLVKPTETLTLTCTVSGIDLSHDDISWVRQAPGKGLEWVGIISYAGSTYYASWAKGRLTISKDTSKNQVVLTMTNMDPVDTATYYCARGVPAYSHGGDLWGQGTLVTVSSASTKGPSVFPLAPSSKSTSGGTAALGCLVKDYFPEPVTVSWNSGALTSGVHTFPAVLQSSGLYSLSSVVTVPSSSLGTQTYICNVNHKPSNTKVDKKVEPKSCDKTHTCPPCPAPELLTGPSVFLFPPKPKDTLMISRTPEVTCVVVDVSDEDPEVKFNWYVDGVEVHNAKTKPREEQYNSTYRVVSVLTVLHRDWLNGKEYKCKVSNKALPKPIEKTISKAKGQPREPQVYTLPPSREEMTKNQVSLTCLVKGFYPSDIAVEWESNGQPENNYKTTPPVLDSDGSFFLYSKLTVKKSRWQQGNVFSCSVMHEALHNHYTQKSLSLSP
light: B1 light
notes: CH with G236T/H268D/Q311R/A330K/D413K against SG1 (EU numbering); also called MS1032LO06-MY335
B3: M103205H795-MY201 / M103202L889-SK1 (antibody, human IgG1, kappa)
heavy: B2 heavy with T238N, R313Q, K415D
light: B1 light
notes: CH with G236N/H268D/A330K against SG1 (EU numbering); also called MS1032LO06-MY201
B4: M103205H795-MY351 / M103202L889-SK1 (antibody, human IgG1, kappa)
heavy: B2 heavy with T238N
light: B1 light
notes: CH with G236N/H268D/Q311R/A330K/D413K against SG1 (EU numbering); also called MS1032LO06-MY351
B5: M103205H795-MY344 / M103202L889-SK1 (antibody, human IgG1, kappa)
heavy: B2 heavy with T238N, Q297L
light: B1 light
notes: CH with G236N/H268D/Q295L/Q311R/A330K/D413K against SG1 (EU numbering); also called MS1032LO06-MY344
B6: M103205H795-MY205 / M103202L889-SK1 (antibody, human IgG1, kappa)
heavy: B2 heavy with T238N, Q297L, R313Q, K415D
light: B1 light
notes: CH with G236N/H268D/Q295L/A330K against SG1 (EU numbering); also called MS1032LO06-MY205
B7: M103205H795-MY101 / M103202L889-SK1 (antibody, human IgG1, kappa)
heavy: B2 heavy with T238N, D270E, R313Q, P398M, K415D
light: B1 light
notes: CH with G236N/H268E/A330K/P396M against SG1 (EU numbering); also called MS1032LO06-MY101
B8: M103205H795-PK2 / M103202L889-SK1 (antibody, human IgG1, kappa)
heavy: B2 heavy with T238N, D270E, R313Q, P398M, S402R
light: B1 light
notes: CH with G236N/H268E/A330K/P396M/S400R/D413K against SG1 (EU numbering); also called MS1032LO06-PK2; MS103205H795-PK2
B9: MS_M103205H795-SG1/M103202L889-SK1 (antibody, human IgG1, kappa)
heavy: not shown
light: B1 light
notes: Anti-latent myostatin IgG; also called MS1032LO06-SG1
B10: M103205H795-MY169 / M103202L889-SK1 (antibody, human IgG1, kappa)
heavy: B2 heavy with T238N, D270E, R313Q, K332A, P398D, K415D
light: B1 light
notes: Position 396 variant derived from MY052, expressed with M103202L889-SK1 as light chain
B11: M103205H795-MY170 / M103202L889-SK1 (antibody, human IgG1, kappa)
heavy: B2 heavy with T238N, D270E, R313Q, K332A, P398E, K415D
light: B1 light
notes: as for B10
B12: M103205H795-MY052 / M103202L889-SK1 (antibody, human IgG1, kappa)
heavy: B2 heavy with T238N, D270E, R313Q, K332A, P398M, K415D
light: B1 light
notes: Fc variant of M103205H795-SG1, expressed with M103202L889-SK1 as light chain; parent of the position 396 variants
B13: M103205H795-MY168 / M103202L889-SK1 (antibody, human IgG1, kappa)
heavy: B2 heavy with T238N, D270E, R313Q, K332A, P398A, K415D
light: B1 light
notes: as for B10
B14: M103205H795-MY171 / M103202L889-SK1 (antibody, human IgG1, kappa)
heavy: B2 heavy with T238N, D270E, R313Q, K332A, P398F, K415D
light: B1 light
notes: as for B10

Target: T1, cynomolgus monkey FcγRIIa1 …
Assay: SPR (BIACORE), antibody captured, FcγR analyte
Description: (§1) The kinetic analysis of interactions between these antibodies and FcγR was carried out using BIACORE® T200 or BIACORE® 4000 (GE Healthcare). HBS-EP+ (GE Healthcare) was used as the running buffer, and the measurement temperature was set to 25° C. A chip produced by immobilizing Protein A. Protein A/G or mouse anti-human IgG kappa light chain (BD Biosciences) onto a Series S Sensor Chip CM4 or CM5 (GE Healthcare) by the amine-coupling method was used. […] After the measurement, the antibody captured on the chip was washed off by allowing reaction with 10 mM glycine-HCl, pH1.5 and 25 mM NaOH so that the chip was regenerated and used repeatedly. The sensorgrams obtained as measurement results were analyzed by the 1:1 Langmuir binding model using the BIACORE® Evaluation Software to calculate the binding rate constant ka (L/mol/s) and dissociation rate constant kd (l/s), and the dissociation constant KD (mol/L) was calculated from these values. […] Regarding such interactions, KD values were calculated using the following 1:1 binding model described in BIACORE® T100 Software Handbook BR1006-48 Edition AE.
(§2) The behavior of interacting molecules according to the 1:1 binding model on BIACORE® can be described by Equation 1: Req=C·R max/(KD+C)+RI, wherein, Req is a plot of steady-state binding levels to analyte concentration. C is concentration, RI is bulk refractive index contribution in the sample, and Rmax is analyte binding capacity of the surface. When this equation is rearranged, KD can be expressed as Equation 2: KD=C·Rmax/(Req−RI)−C. KD can be calculated by substituting the values of Rmax, RI, and C into Equation 1 or Equation 2. From the current measurement conditions, RI=0, C=2 μmol/L can be used.

Kd [nM]	Binder
3200	B1
2000	B2
1400	B3
920	B4
890	B5
900	B6
1100	B7
1300	B8

target: T8, cynomolgus monkey FcγRIIIaS extracellular domain, C-terminal His-tag (cynomolgus monkey, UniProt A3RFZ7 21-206 (rhesus entry)); assay: SPR (BIACORE), antibody captured, FcγR analyte
T8 construct: also called cyno FcγRIIIaS; cynoFcγRIIIaS; not shown: His-tag added to C-terminus
Description: as §1, §2

Kd [nM]	Binder
360	B1
1500	B2
5700	B3
5200	B4
4900	B5
6000	B6
3200	B7
3900	B8

target: T2, human FcγRIIaH extracellular domain, …; assay: SPR (BIACORE), antibody captured, FcγR analyte
Description: as §1, §2

Kd [nM]	Binder
690	B1
290	B2
910	B3
1000	B4
670	B5
470	B6
490	B7
570	B8

Target: T3, human FcγRIIaR extracellular domain, …
Assay: SPR (BIACORE), antibody captured, FcγR analyte
Description: as §1, §2

Kd [nM]	Binder
1100	B1
290	B2
1900	B3
1800	B4
1200	B5
1300	B6
870	B7
1100	B8

target: T4, human FcγRIIb extracellular domain, …; assay: SPR (BIACORE), antibody captured, FcγR analyte
Description: as §1, §2

Kd [nM]	Binder
4600	B1
2300	B2
1100	B3
1200	B4
720	B5
560	B6
490	B7
590	B8

Target: T5, cynomolgus monkey FcγRIIa1 …
Assay: SPR (Biacore), antibody captured on chip, FcgR extracellular domain as analyte, 25 C
Description: as §1
(§3) The resultant variants were expressed using M103202L889-SK1 as light chain and their affinity to human and cynoFcγRs were evaluated (Table 20).

Kd [nM]	Binder
3200	B9
2300	B10
2300	B11
1400	B12
2200	B13
2300	B14

Target: T6, cynomolgus monkey FcγRIIIaS …
Assay: as above
Description: as §1, §3

Kd [nM]	Binder
360	B9
3500	B10
2900	B11
1500	B12
4500	B13
3500	B14

Target: T7, human FcγRIIaR extracellular domain …
Assay: as above
Description: as §1, §3

Kd [nM]	Binder
1100	B9
2500	B10
2500	B11
1400	B12
2300	B13
2100	B14
